Assay results taken from US20200317768A1 (published 2020).

T1: cynomolgus monkey FcγRIIa1 extracellular domain with C-terminal His-tag (cynomolgus monkey)
T1 construct: also called cyno FcgRIIa1; cynoFcγRIIa1
T1 chain: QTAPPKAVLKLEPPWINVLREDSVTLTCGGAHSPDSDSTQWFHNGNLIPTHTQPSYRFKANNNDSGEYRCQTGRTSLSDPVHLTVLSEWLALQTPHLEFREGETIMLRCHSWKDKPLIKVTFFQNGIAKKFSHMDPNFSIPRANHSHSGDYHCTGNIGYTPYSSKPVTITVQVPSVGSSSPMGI

T2: cynomolgus monkey FcγRIIa2 extracellular domain with C-terminal His-tag (cynomolgus monkey)
T2 construct: also called cyno FcgRIIa2; cynoFcγRIIa2
T2 chain: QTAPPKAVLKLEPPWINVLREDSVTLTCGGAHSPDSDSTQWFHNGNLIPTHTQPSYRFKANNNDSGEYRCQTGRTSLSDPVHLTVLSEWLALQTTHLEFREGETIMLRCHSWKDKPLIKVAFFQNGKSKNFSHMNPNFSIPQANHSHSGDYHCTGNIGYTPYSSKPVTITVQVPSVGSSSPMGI

T3: cynomolgus monkey FcγRIIa3 extracellular domain with C-terminal His-tag (cynomolgus monkey)
T3 construct: also called cyno FcgRIIa3; cynoFcγRIIa3
T3 chain: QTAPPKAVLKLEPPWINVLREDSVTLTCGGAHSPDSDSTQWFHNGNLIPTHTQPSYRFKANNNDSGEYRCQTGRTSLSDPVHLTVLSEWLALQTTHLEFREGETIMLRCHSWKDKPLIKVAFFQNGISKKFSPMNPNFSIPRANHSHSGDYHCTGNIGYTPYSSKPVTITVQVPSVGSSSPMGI

T4: cynomolgus monkey FcγRIIb extracellular domain with C-terminal His-tag (cynomolgus monkey)
T4 construct: also called cyno FcgRIIb; cynoFcγRIIb
T4 chain: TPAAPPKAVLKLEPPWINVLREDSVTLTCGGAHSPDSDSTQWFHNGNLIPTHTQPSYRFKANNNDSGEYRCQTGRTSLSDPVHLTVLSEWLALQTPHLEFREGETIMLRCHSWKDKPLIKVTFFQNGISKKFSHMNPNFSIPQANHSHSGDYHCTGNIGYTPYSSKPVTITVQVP

T5: cynomolgus monkey FcγRIIIaS extracellular domain with C-terminal His-tag (cynomolgus monkey, UniProt Q8SPW2 21-206 at identity 1.00))
T5 construct: also called cyno FcgRIIIaS; cynoFcγRIIIaS
T5 chain: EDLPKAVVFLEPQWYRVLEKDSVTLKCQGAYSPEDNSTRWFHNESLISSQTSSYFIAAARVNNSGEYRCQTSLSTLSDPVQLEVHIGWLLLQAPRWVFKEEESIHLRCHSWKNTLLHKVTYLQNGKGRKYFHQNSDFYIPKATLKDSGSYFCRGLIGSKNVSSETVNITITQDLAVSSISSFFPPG

T6: human FcγRIIaH extracellular domain with C-terminal His-tag (human, UniProt P12318 34-217)
T6 construct: also called human FcgRIIaH; FcγRIIa (type H)
T6 sequence: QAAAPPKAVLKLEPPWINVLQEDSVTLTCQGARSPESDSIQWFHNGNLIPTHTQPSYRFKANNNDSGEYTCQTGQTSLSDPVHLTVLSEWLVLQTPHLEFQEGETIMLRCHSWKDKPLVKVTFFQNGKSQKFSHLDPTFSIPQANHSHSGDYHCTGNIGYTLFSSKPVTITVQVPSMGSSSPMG

T7: human FcγRIIb extracellular domain with C-terminal His-tag (human, UniProt P31994 43-217)
T7 construct: also called human FcgRIIb
T7 sequence: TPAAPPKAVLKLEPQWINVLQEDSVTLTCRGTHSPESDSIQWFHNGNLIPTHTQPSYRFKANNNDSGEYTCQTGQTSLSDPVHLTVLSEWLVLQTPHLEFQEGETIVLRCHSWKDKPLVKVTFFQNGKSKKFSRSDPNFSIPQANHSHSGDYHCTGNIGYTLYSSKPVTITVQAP


Assays:
Assay in all cases: SPR (BIACORE); KD of SG1 / KD of variant;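 note: relative to parent M103205H795-SG1 carrying the SG1 human heavy chain constant region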
[1] = molecular target: T1, cynomolgus monkey FcγRIIa1 …
[2] = molecular target: T2, cynomolgus monkey FcγRIIa2 …
[3] = molecular target: T3, cynomolgus monkey FcγRIIa3 …
[4] = molecular target: T4, cynomolgus monkey FcγRIIb extracellular …
[5] = molecular target: T5, cynomolgus monkey FcγRIIIaS …
[6] = molecular target: T6, human FcγRIIaH extracellular domain …
[7] = molecular target: T7, human FcγRIIb extracellular domain with …
[8] = molecular target: T8, human FcγRIIIaV extracellular domain with C-terminal His-tag (human, UniProt P08637 17-208)
T8 construct: also called human FcgRIIIaV
T8 sequence (P08637 17-208 F176V): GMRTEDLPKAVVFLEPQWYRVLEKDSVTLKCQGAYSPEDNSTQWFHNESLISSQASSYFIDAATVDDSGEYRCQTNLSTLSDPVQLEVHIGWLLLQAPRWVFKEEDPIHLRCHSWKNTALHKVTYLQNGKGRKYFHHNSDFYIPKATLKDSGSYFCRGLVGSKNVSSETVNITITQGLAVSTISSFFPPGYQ

| Binder | KD fold (SG1 = 1) [1] [fold] | KD fold (SG1 = 1) [2] [fold] | KD fold (SG1 = 1) [3] [fold] | KD fold (SG1 = 1) [4] [fold] | KD fold (SG1 = 1) [5] [fold] | KD fold (SG1 = 1) [6] [fold] | KD fold (SG1 = 1) [7] [fold] | KD fold (SG1 = 1) [8] [fold] |
| --- | --- | --- | --- | --- | --- | --- | --- | --- |
| M103205H795-MY339/M103202L889-SK1 (antibody, human IgG1, kappa, Substitutions introduced into M103205H795-SG1, expressed with M103202L889-SK1 as light chain; EU numbering) heavy: QVTLKESGPVLVKPTETLTLTCTVSGIDLSHDDISWVRQAPGKGLEWVGIISYAGSTYYASWAKGRLTISKDTSKNQVVLTMTNMDPVDTATYYCARGVPAYSHGGDLWGQGTLVTVSSASTKGPSVFPLAPSSKSTSGGTAALGCLVKDYFPEPVTVSWNSGALTSGVHTFPAVLQSSGLYSLSSVVTVPSSSLGTQTYICNVNHKPSNTKVDKKVEPKSCDKTHTCPPCPAPELLLGPSVFLFPPKPKDTLMISRTPEVTCVVVDVSDEDPEVKFNWYVDGVEVHNAKTKPREEQYNSTYRVVSVLTVLHQDWLNGKEYKCKVSNTALPKPIEKTISKAKGQPREPQVYTLPPSREEMTKNQVSLTCLVKGFYPSDIAVEWESNGQPENNYKTTPKVLDSDGSFFLYSKLTVDKSRWQQGNVFSCSVMHEALHNHYTQKSLSLSP light: DIVMTQSPATLSLSPGERATLSCTSSQSVYHANWLSWFQQKPGQPPKLLIYWASTLAYGVPSRFSGSGSGTDFTLTISSLQPEDAATYYCAGGYGGGRYAFGQGTKVEIKRTVAAPSVFIFPPSDEQLKSGTASVVCLLNNFYPREAKVQWKVDNALQSGNSQESVTEQDSKDSTYSLSSTLTLSKADYEKHKVYACEVTHQGLSSPVTKSFNRGEC | 0.9 | 1.7 | 1.7 | 2.4 | 0.47 | 1.7 | 1.5 | 0.14 |
| M103205H795-MY341/M103202L889-SK1 (antibody, human IgG1, kappa, Substitutions introduced into M103205H795-SG1, expressed with M103202L889-SK1 as light chain; EU numbering) heavy: QVTLKESGPVLVKPTETLTLTCTVSGIDLSHDDISWVRQAPGKGLEWVGIISYAGSTYYASWAKGRLTISKDTSKNQVVLTMTNMDPVDTATYYCARGVPAYSHGGDLWGQGTLVTVSSASTKGPSVFPLAPSSKSTSGGTAALGCLVKDYFPEPVTVSWNSGALTSGVHTFPAVLQSSGLYSLSSVVTVPSSSLGTQTYICNVNHKPSNTKVDKKVEPKSCDKTHTCPPCPAPELLLGPSVFLFPPKPKDTLMISRTPEVTCVVVDVSDEDPEVKFNWYVDGVEVHNAKTKPREELYNSTYRVVSVLTVLHQDWLNGKEYKCKVSNTALPKPIEKTISKAKGQPREPQVYTLPPSREEMTKNQVSLTCLVKGFYPSDIAVEWESNGQPENNYKTTPKVLDSDGSFFLYSKLTVDKSRWQQGNVFSCSVMHEALHNHYTQKSLSLSP light: DIVMTQSPATLSLSPGERATLSCTSSQSVYHANWLSWFQQKPGQPPKLLIYWASTLAYGVPSRFSGSGSGTDFTLTISSLQPEDAATYYCAGGYGGGRYAFGQGTKVEIKRTVAAPSVFIFPPSDEQLKSGTASVVCLLNNFYPREAKVQWKVDNALQSGNSQESVTEQDSKDSTYSLSSTLTLSKADYEKHKVYACEVTHQGLSSPVTKSFNRGEC | 1.2 | 1.8 | 1.9 | 3 | 0.38 | 2.7 | 2.6 | 0.12 |
| M103205H795-MY340/M103202L889-SK1 (antibody, human IgG1, kappa, Substitutions introduced into M103205H795-SG1, expressed with M103202L889-SK1 as light chain; EU numbering) heavy: QVTLKESGPVLVKPTETLTLTCTVSGIDLSHDDISWVRQAPGKGLEWVGIISYAGSTYYASWAKGRLTISKDTSKNQVVLTMTNMDPVDTATYYCARGVPAYSHGGDLWGQGTLVTVSSASTKGPSVFPLAPSSKSTSGGTAALGCLVKDYFPEPVTVSWNSGALTSGVHTFPAVLQSSGLYSLSSVVTVPSSSLGTQTYICNVNHKPSNTKVDKKVEPKSCDKTHTCPPCPAPELLLGPSVFLFPPKPKDTLMISRTPEVTCVVVDVSDEDPEVKFNWYVDGVEVHNAKTKPREELYNSTYRVVSVLTVLHQDWLNGKEYKCKVSNKALPKPIEKTISKAKGQPREPQVYTLPPSREEMTKNQVSLTCLVKGFYPSDIAVEWESNGQPENNYKTTPKVLDSDGSFFLYSKLTVDKSRWQQGNVFSCSVMHEALHNHYTQKSLSLSP light: DIVMTQSPATLSLSPGERATLSCTSSQSVYHANWLSWFQQKPGQPPKLLIYWASTLAYGVPSRFSGSGSGTDFTLTISSLQPEDAATYYCAGGYGGGRYAFGQGTKVEIKRTVAAPSVFIFPPSDEQLKSGTASVVCLLNNFYPREAKVQWKVDNALQSGNSQESVTEQDSKDSTYSLSSTLTLSKADYEKHKVYACEVTHQGLSSPVTKSFNRGEC | 0.7 | 1 | 0.7 | 1.6 | 0.16 | 2.2 | 1.4 | 0.05 |
| M103205H795-MY342/M103202L889-SK1 (antibody, human IgG1, kappa, Substitutions introduced into M103205H795-SG1, expressed with M103202L889-SK1 as light chain; EU numbering) heavy: QVTLKESGPVLVKPTETLTLTCTVSGIDLSHDDISWVRQAPGKGLEWVGIISYAGSTYYASWAKGRLTISKDTSKNQVVLTMTNMDPVDTATYYCARGVPAYSHGGDLWGQGTLVTVSSASTKGPSVFPLAPSSKSTSGGTAALGCLVKDYFPEPVTVSWNSGALTSGVHTFPAVLQSSGLYSLSSVVTVPSSSLGTQTYICNVNHKPSNTKVDKKVEPKSCDKTHTCPPCPAPELLLGPSVFLFPPKPKDTLMISRTPEVTCVVVDVSDEDPEVKFNWYVDGVEVHNAKTKPREELYNSTYRVVSVLTVLHQDWLNGKEYKCKVSNKALPKPIEKTISKAKGQPREPQVYTLPPSREEMTKNQVSLTCLVKGFYPSDIAVEWESNGQPENNYKTTPMVLDSDGSFFLYSKLTVDKSRWQQGNVFSCSVMHEALHNHYTQKSLSLSP light: DIVMTQSPATLSLSPGERATLSCTSSQSVYHANWLSWFQQKPGQPPKLLIYWASTLAYGVPSRFSGSGSGTDFTLTISSLQPEDAATYYCAGGYGGGRYAFGQGTKVEIKRTVAAPSVFIFPPSDEQLKSGTASVVCLLNNFYPREAKVQWKVDNALQSGNSQESVTEQDSKDSTYSLSSTLTLSKADYEKHKVYACEVTHQGLSSPVTKSFNRGEC | 0.6 | 0.6 | 0.3 | 1.4 | 0.14 | 1.9 | 1.2 | 0.03 |
